T1: CARD11, Q9BXL7
T1 sequence (Q9BXL7 662-765, limits assumed, looked up): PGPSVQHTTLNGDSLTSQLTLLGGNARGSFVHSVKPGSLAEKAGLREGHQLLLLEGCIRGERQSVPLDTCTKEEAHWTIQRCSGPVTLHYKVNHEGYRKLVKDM

T2: DFNB31_1, Q9P202
T2 sequence (Q9P202 135-233, limits assumed, looked up): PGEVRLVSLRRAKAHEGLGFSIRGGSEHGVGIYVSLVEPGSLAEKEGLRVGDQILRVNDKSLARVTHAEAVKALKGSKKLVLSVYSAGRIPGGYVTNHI

T3: GRIP1_2, Q9Y3R0
T3 sequence (Q9Y3R0 145-248, limits assumed, looked up): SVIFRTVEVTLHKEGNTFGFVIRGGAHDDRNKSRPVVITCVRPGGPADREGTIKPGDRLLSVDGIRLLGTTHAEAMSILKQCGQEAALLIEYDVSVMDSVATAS

T4: GRIP1_7, Q9Y3R0
T4 sequence (Q9Y3R0 999-1096, limits assumed, looked up): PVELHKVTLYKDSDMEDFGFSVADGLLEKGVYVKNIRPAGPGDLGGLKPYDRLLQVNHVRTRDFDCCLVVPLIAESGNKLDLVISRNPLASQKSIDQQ

T5: LRRC7, Q96NW7
T5 sequence (Q96NW7 1440-1537, limits assumed, looked up): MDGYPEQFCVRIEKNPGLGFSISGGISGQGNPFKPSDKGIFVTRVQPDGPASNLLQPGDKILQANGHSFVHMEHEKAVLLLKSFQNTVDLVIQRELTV

T6: MPDZ_10, O75970
T6 sequence (O75970 1624-1722, limits assumed, looked up): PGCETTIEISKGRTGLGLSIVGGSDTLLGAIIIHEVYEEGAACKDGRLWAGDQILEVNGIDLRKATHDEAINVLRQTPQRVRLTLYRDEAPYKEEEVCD

T7: MPDZ_5, O75970
T7 sequence (O75970 695-796, limits assumed, looked up): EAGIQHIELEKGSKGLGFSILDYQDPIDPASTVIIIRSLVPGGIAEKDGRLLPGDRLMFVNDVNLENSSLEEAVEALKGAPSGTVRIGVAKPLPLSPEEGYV

T8: MPP6, Q9NZW5
T8 sequence (Q9NZW5 125-219, limits assumed, looked up): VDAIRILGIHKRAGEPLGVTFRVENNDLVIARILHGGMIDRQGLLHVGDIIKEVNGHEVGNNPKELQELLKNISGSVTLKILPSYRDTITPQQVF

T9: MPP7, Q5T2T1
T9 sequence (Q5T2T1 134-230, limits assumed, looked up): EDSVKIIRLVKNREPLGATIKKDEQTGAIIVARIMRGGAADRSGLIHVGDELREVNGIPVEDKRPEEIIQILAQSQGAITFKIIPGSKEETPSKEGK

T10: RADIL, Q96JH8
T10 sequence (Q96JH8 971-1071, limits assumed, looked up): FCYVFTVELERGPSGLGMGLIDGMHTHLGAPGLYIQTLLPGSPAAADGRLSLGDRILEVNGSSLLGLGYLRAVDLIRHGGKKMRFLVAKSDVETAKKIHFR

T11: RAPGEF6, Q8TEU7
T11 sequence (Q8TEU7 525-625, limits assumed, looked up): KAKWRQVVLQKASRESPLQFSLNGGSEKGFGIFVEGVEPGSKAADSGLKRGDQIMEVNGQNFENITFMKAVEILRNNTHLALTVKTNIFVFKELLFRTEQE


Columns and labels:
Assay in all cases: holdup assay
Parameters in all cases: key: below the threshold = too weak to quantify, mostly under pKd 3.1 to 4
Conditions in all cases: plain residues with an end cap or a label only (N-terminal biotin on a linker: ado-ado)
[1] = molecular target: T1, CARD11, Q9BXL7
[2] = molecular target: T2, DFNB31_1, Q9P202
[3] = molecular target: DLG4_2, P78352
[4] = molecular target: FRMPD2_2, Q68DX3
[5] = molecular target: FRMPD3, Q5JV73
[6] = molecular target: FRMPD4, Q14CM0
[7] = molecular target: GOPC, Q9HD26
[8] = molecular target: T3, GRIP1_2, Q9Y3R0
[9] = molecular target: T4, GRIP1_7, Q9Y3R0
[10] = molecular target: GRIP2_6, Q9C0E4
[11] = molecular target: HTRA2, O43464
[12] = molecular target: IL16_1, Q14005
[13] = molecular target: Inadl_2, Q8NI35
[14] = molecular target: Inadl_4, Q8NI35
[15] = molecular target: LDB3, O75112
[16] = molecular target: T5, LRRC7, Q96NW7
[17] = molecular target: MAGI2_5, Q86UL8
[18] = molecular target: MAGI3_2, Q5TCQ9
[19] = molecular target: MAST1, Q9Y2H9
[20] = molecular target: T6, MPDZ_10, O75970
[21] = molecular target: T7, MPDZ_5, O75970
[22] = molecular target: T8, MPP6, Q9NZW5
[23] = molecular target: T9, MPP7, Q5T2T1
[24] = molecular target: NHERF4_1, Q86UT5-2
[25] = molecular target: T10, RADIL, Q96JH8
[26] = molecular target: T11, RAPGEF6, Q8TEU7

MAGI2_5, Q86UL8, sequence (Q86UL8 915-1017): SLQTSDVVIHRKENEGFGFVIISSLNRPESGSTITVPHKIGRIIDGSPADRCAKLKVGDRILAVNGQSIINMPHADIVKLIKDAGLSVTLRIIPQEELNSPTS
MAST1, Q9Y2H9, sequence (Q9Y2H9 962-1065): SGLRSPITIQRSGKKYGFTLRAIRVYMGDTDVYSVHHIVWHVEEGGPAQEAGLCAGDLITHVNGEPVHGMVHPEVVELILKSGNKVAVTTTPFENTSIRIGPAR
DLG4_2, P78352, sequence (P78352 155-259): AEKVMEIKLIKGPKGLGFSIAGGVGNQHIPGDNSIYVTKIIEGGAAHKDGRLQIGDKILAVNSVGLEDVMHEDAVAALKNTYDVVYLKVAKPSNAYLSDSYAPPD
NHERF4_1, Q86UT5-2, sequence (Q86UT5 other isoform, or with tags, fused parts or gaps): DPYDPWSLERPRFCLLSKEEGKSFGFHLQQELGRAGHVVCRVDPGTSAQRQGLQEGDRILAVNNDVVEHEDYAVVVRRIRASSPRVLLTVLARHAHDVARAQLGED
Inadl_2, Q8NI35, sequence (Q8NI35 238-335): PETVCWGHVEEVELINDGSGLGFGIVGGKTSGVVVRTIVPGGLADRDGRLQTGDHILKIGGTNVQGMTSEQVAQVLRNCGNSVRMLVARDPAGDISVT
LDB3, O75112, sequence (O75112 1-94): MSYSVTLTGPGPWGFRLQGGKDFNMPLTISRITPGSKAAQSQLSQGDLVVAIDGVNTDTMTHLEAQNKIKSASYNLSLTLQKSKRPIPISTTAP
IL16_1, Q14005, sequence (Q14005 210-306): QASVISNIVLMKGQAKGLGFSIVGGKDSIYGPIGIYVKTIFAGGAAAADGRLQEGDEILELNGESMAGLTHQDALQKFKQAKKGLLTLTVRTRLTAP
FRMPD2_2, Q68DX3, sequence (Q68DX3 944-1038): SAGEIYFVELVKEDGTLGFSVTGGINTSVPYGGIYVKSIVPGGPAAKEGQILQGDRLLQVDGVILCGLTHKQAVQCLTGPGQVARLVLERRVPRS
Inadl_4, Q8NI35, sequence (Q8NI35 547-651): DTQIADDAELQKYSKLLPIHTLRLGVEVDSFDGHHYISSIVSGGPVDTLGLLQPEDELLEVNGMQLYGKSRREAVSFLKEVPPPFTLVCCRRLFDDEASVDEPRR
FRMPD4, Q14CM0, sequence (Q14CM0 67-160): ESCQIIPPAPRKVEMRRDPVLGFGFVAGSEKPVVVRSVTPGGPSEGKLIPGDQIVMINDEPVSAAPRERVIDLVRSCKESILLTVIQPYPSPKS
FRMPD3, Q5JV73, sequence (Q5JV73 12-100): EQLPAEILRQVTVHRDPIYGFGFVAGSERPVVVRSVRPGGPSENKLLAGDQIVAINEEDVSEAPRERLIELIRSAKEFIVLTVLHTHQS
MAGI3_2, Q5TCQ9, sequence (Q5TCQ9 398-503): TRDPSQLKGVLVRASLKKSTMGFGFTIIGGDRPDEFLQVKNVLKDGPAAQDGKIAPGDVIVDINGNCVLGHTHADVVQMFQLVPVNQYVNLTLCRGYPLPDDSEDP
HTRA2, O43464, sequence (O43464 355-458): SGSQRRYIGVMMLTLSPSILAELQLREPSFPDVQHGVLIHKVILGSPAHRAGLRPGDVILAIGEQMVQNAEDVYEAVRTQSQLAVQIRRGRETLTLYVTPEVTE
GRIP2_6, Q9C0E4, sequence (Q9C0E4 648-740): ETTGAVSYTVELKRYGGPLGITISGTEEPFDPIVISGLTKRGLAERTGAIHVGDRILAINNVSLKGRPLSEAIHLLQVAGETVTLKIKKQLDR

Binder | pKd [1] | pKd [2] | pKd [3] | pKd [4] | pKd [5] | pKd [6] | pKd [7] | pKd [8] | pKd [9] | pKd [10] | pKd [11] | pKd [12] | pKd [13] | pKd [14] | pKd [15] | pKd [16] | pKd [17] | pKd [18] | pKd [19] | pKd [20] | other results
NLSIEKETKL [ASNSD1, Q9NWL6] | below the threshold | 4.41 | 3.54 | below the threshold | below the threshold | 4.28 | below the threshold | below the threshold | below the threshold | below the threshold | below the threshold | below the threshold | below the threshold | below the threshold | below the threshold | below the threshold | below the threshold | below the threshold | 4.73 | below the threshold | pKd [21]: below the threshold; pKd [22]: below the threshold; pKd [23]: below the threshold; pKd [24]: 3.87; pKd [25]: below the threshold; pKd [26]: below the threshold
SKENVQETQI [LRRC4B, Q9NT99] | below the threshold | 5.32 | 4.55 | 3.92 | below the threshold | below the threshold | 3.99 | below the threshold | below the threshold | below the threshold | below the threshold | below the threshold | below the threshold | below the threshold | below the threshold | below the threshold | 4.13 | 4.37 | 3.97 | below the threshold | pKd [21]: below the threshold; pKd [22]: below the threshold; pKd [23]: below the threshold; pKd [24]: below the threshold; pKd [25]: below the threshold; pKd [26]: 3.52
